Reference: PMC10404244, “Control of motor landing and processivity by the CAP-Gly domain in the KIF13B tail” (Nature Communications, 2023)

B1: human KIF13B CAP-Gly fragment (a.a. 1685–1826), N-terminal sfGFP-StrepII (domain or fragment)
chain: QALASDSEEADEVPEWLREGEFVTVGAHKTGVVRYVGPADFQEGTWVGVELDLPSGKNDGSIGGKQYFRCNPGYGLLVRPSRVRRATGPVRRRSTGLRLGAPEARRSATLSGSATNLASLTAALAKADRSHKNPENRKSWAS
notes: KIF13B, human, a.a; 1685–1826: CAP-Gly domain and an ~80 residue unstructured C-terminal region; The sfGFP-StrepII tag is joined to the N-terminus of the fragment through a 3xGGGGS linker (pET28a); the methods hold here; also called KIF13B^CG; KIF13^CG; source: E. coli BL21-CodonPlus (DE3)-RIPL, purified (Strep-Tactin XT, HiTrap Q, Superdex 200); not shown: sfGFP, N-terminal, kept
B2: full-length human KIF13B (wild type), C-terminal sfGFP-StrepII (natural protein)
chain: MGDSKVKVAVRIRPMNRRETDLHTKCVVDVDANKVILNPVNTNLSKGDARGQPKVFAYDHCFWSMDESVKEKYAGQDIVFKCLGENILQNAFDGYNACIFAYGQTGSGKSYTMMGTADQPGLIPRLCSGLFERTQKEENEEQSFKVEVSYMEIYNEKVRDLLDPKGSRQTLKVREHSVLGPYVDGLSKLAVTSYKDIESLMSEGNKSRTVAATNMNEESSRSHAVFKITLTHTLYDVKSGTSGEKVGKLSLVDLAGSERATKTGAAGDRLKEGSNINKSLTTLGLVISALADQSAGKNKNKFVPYRDSVLTWLLKDSLGGNSKTAMVATVSPAADNYDETLSTLRYADRAKHIVNHAVVNEDPNARIIRDLREEVEKLREQLTKAEAMKSPELKDRLEESEKLIQEMTVTWEEKLRKTEEIAQERQKQLESLGISLQSSGIKVGDDKCFLVNLNADPALNELLVYYLKEHTLIGSANSQDIQLCGMGILPEHCIIDITSEGQVMLTPQKNTRTFVNGSSVSSPIQLHHGDRILWGNNHFFRLNLPKKKKKAEREDEDQDPSMKNENSSEQLDVDGDSSSEVSSEVNFNYEYAQMEVTMKALGSNDPMQSILNSLEQQHEEEKRSALERQRLMYEHELEQLRRRLSPEKQNCRSMDRFSFHSPSAQQRLRQWAEEREATLNNSLMRLREQIVKANLLVREANYIAEELDKRTEYKVTLQIPASSLDANRKRGSLLSEPAIQVRRKGKGKQIWSLEKLDNRLLDMRDLYQEWKECEEDNPVIRSYFKRADPFYDEQENHSLIGVANVFLESLFYDVKLQYAVPIINQKGEVAGRLHVEVMRLSGDVGERIAGGDEVAEVSFEKETQENKLVCMVKILQATGLPQHLSHFVFCKYSFWDQQEPVIVAPEVDTSSSSVSKEPHCMVVFDHCNEFSVNITEDFIEHLSEGALAIEVYGHKINDPRKNPALWDLGIIQAKTRSLRDRWSEVTRKLEFWVQILEQNENGEYCPVEVISAKDVPTGGIFQLRQGQSRRVQVEVKSVQESGTLPLMEECILSVGIGCVKVRPLRAPRTHETFHEEEEDMDSYQDRDLERLRRKWLNALTKRQEYLDQQLQKLVSKRDKTEDDADREAQLLEMRLTLTEERNAVMVPSAGSGIPGAPAEWTPVPGMETHIPVIFLDLNADDFSSQDNLDDPEAGGWDATLTGEEEEEFFELQIVKQHDGEVKAEASWDSAVHGCPQLSRGTPVDERLFLIVRVTVQLSHPADMQLVLRKRICVNVHGRQGFAQSLLKKMSHRSSIPGCGVTFEIVSNIPEDAQGVEEREALARMAANVENPASADSEAYIEKYLRSVLAVENLLTLDRLRQEVAVKEQLTGKGKLSRRSISSPNVNRLSGSRQDLIPSYSLGSNKGRWESQQDVSQTTVSRGIAPAPALSVSPQNNHSPDPGLSNLAASYLNPVKSFVPQMPKLLKSLFPVRDEKRGKRPSPLAHQPVPRIMVQSASPDIRVTRMEEAQPEMGPDVLVQTMGAPALKICDKPAKVPSPPPVIAVTAVTPAPEAQDGPPSPLSEASSGYFSHSVSTATLSDALGPGLDAAAPPGSMPTAPEAEPEAPISHPPPPTAVPAEEPPGPQQLVSPGRERPDLEAPAPGSPFRVRRVRASELRSFSRMLAGDPGCSPGAEGNAPAPGAGGQALASDSEEADEVPEWLREGEFVTVGAHKTGVVRYVGPADFQEGTWVGVELDLPSGKNDGSIGGKQYFRCNPGYGLLVRPSRVRRATGPVRRRSTGLRLGAPEARRSATLSGSATNLASLTAALAKADRSHKNPENRKSWAS
notes: KIF13B, human, full-length cDNA from Transomics (BC172411); Predominantly monomeric in solution, minor dimer fraction (mass photometry); also called WT KIF13B; full-length KIF13B; source: Sf9 insect cells (baculovirus), purified (Strep-Tactin XT, gel filtration); not shown: sfGFP, C-terminal, kept
B3: full-length human KIF13B V178Q, C-terminal sfGFP-StrepII (natural protein, UniProt Q9NQT8 1-1826, looked up)
chain: MGDSKVKVAVRIRPMNRRETDLHTKCVVDVDANKVILNPVNTNLSKGDARGQPKVFAYDHCFWSMDESVKEKYAGQDIVFKCLGENILQNAFDGYNACIFAYGQTGSGKSYTMMGTADQPGLIPRLCSGLFERTQKEENEEQSFKVEVSYMEIYNEKVRDLLDPKGSRQTLKVREHSQLGPYVDGLSKLAVTSYKDIESLMSEGNKSRTVAATNMNEESSRSHAVFKITLTHTLYDVKSGTSGEKVGKLSLVDLAGSERATKTGAAGDRLKEGSNINKSLTTLGLVISALADQSAGKNKNKFVPYRDSVLTWLLKDSLGGNSKTAMVATVSPAADNYDETLSTLRYADRAKHIVNHAVVNEDPNARIIRDLREEVEKLREQLTKAEAMKSPELKDRLEESEKLIQEMTVTWEEKLRKTEEIAQERQKQLESLGISLQSSGIKVGDDKCFLVNLNADPALNELLVYYLKEHTLIGSANSQDIQLCGMGILPEHCIIDITSEGQVMLTPQKNTRTFVNGSSVSSPIQLHHGDRILWGNNHFFRLNLPKKKKKAEREDEDQDPSMKNENSSEQLDVDGDSSSEVSSEVNFNYEYAQMEVTMKALGSNDPMQSILNSLEQQHEEEKRSALERQRLMYEHELEQLRRRLSPEKQNCRSMDRFSFHSPSAQQRLRQWAEEREATLNNSLMRLREQIVKANLLVREANYIAEELDKRTEYKVTLQIPASSLDANRKRGSLLSEPAIQVRRKGKGKQIWSLEKLDNRLLDMRDLYQEWKECEEDNPVIRSYFKRADPFYDEQENHSLIGVANVFLESLFYDVKLQYAVPIINQKGEVAGRLHVEVMRLSGDVGERIAGGDEVAEVSFEKETQENKLVCMVKILQATGLPQHLSHFVFCKYSFWDQQEPVIVAPEVDTSSSSVSKEPHCMVVFDHCNEFSVNITEDFIEHLSEGALAIEVYGHKINDPRKNPALWDLGIIQAKTRSLRDRWSEVTRKLEFWVQILEQNENGEYCPVEVISAKDVPTGGIFQLRQGQSRRVQVEVKSVQESGTLPLMEECILSVGIGCVKVRPLRAPRTHETFHEEEEDMDSYQDRDLERLRRKWLNALTKRQEYLDQQLQKLVSKRDKTEDDADREAQLLEMRLTLTEERNAVMVPSAGSGIPGAPAEWTPVPGMETHIPVIFLDLNADDFSSQDNLDDPEAGGWDATLTGEEEEEFFELQIVKQHDGEVKAEASWDSAVHGCPQLSRGTPVDERLFLIVRVTVQLSHPADMQLVLRKRICVNVHGRQGFAQSLLKKMSHRSSIPGCGVTFEIVSNIPEDAQGVEEREALARMAANVENPASADSEAYIEKYLRSVLAVENLLTLDRLRQEVAVKEQLTGKGKLSRRSISSPNVNRLSGSRQDLIPSYSLGSNKGRWESQQDVSQTTVSRGIAPAPALSVSPQNNHSPDPGLSNLAASYLNPVKSFVPQMPKLLKSLFPVRDEKRGKRPSPLAHQPVPRIMVQSASPDIRVTRMEEAQPEMGPDVLVQTMGAPALKICDKPAKVPSPPPVIAVTAVTPAPEAQDGPPSPLSEASSGYFSHSVSTATLSDALGPGLDAAAPPGSMPTAPEAEPEAPISHPPPPTAVPAEEPPGPQQLVSPGRERPDLEAPAPGSPFRVRRVRASELRSFSRMLAGDPGCSPGAEGNAPAPGAGGQALASDSEEADEVPEWLREGEFVTVGAHKTGVVRYVGPADFQEGTWVGVELDLPSGKNDGSIGGKQYFRCNPGYGLLVRPSRVRRATGPVRRRSTGLRLGAPEARRSATLSGSATNLASLTAALAKADRSHKNPENRKSWAS
notes: source: Sf9 insect cells (baculovirus), purified (Strep-Tactin XT, gel filtration); not shown: sfGFP, C-terminal, kept
B4: full-length human KIF13B K414A, C-terminal sfGFP-StrepII (natural protein, UniProt Q9NQT8 1-1826, looked up)
chain: MGDSKVKVAVRIRPMNRRETDLHTKCVVDVDANKVILNPVNTNLSKGDARGQPKVFAYDHCFWSMDESVKEKYAGQDIVFKCLGENILQNAFDGYNACIFAYGQTGSGKSYTMMGTADQPGLIPRLCSGLFERTQKEENEEQSFKVEVSYMEIYNEKVRDLLDPKGSRQTLKVREHSVLGPYVDGLSKLAVTSYKDIESLMSEGNKSRTVAATNMNEESSRSHAVFKITLTHTLYDVKSGTSGEKVGKLSLVDLAGSERATKTGAAGDRLKEGSNINKSLTTLGLVISALADQSAGKNKNKFVPYRDSVLTWLLKDSLGGNSKTAMVATVSPAADNYDETLSTLRYADRAKHIVNHAVVNEDPNARIIRDLREEVEKLREQLTKAEAMKSPELKDRLEESEKLIQEMTVTWEEALRKTEEIAQERQKQLESLGISLQSSGIKVGDDKCFLVNLNADPALNELLVYYLKEHTLIGSANSQDIQLCGMGILPEHCIIDITSEGQVMLTPQKNTRTFVNGSSVSSPIQLHHGDRILWGNNHFFRLNLPKKKKKAEREDEDQDPSMKNENSSEQLDVDGDSSSEVSSEVNFNYEYAQMEVTMKALGSNDPMQSILNSLEQQHEEEKRSALERQRLMYEHELEQLRRRLSPEKQNCRSMDRFSFHSPSAQQRLRQWAEEREATLNNSLMRLREQIVKANLLVREANYIAEELDKRTEYKVTLQIPASSLDANRKRGSLLSEPAIQVRRKGKGKQIWSLEKLDNRLLDMRDLYQEWKECEEDNPVIRSYFKRADPFYDEQENHSLIGVANVFLESLFYDVKLQYAVPIINQKGEVAGRLHVEVMRLSGDVGERIAGGDEVAEVSFEKETQENKLVCMVKILQATGLPQHLSHFVFCKYSFWDQQEPVIVAPEVDTSSSSVSKEPHCMVVFDHCNEFSVNITEDFIEHLSEGALAIEVYGHKINDPRKNPALWDLGIIQAKTRSLRDRWSEVTRKLEFWVQILEQNENGEYCPVEVISAKDVPTGGIFQLRQGQSRRVQVEVKSVQESGTLPLMEECILSVGIGCVKVRPLRAPRTHETFHEEEEDMDSYQDRDLERLRRKWLNALTKRQEYLDQQLQKLVSKRDKTEDDADREAQLLEMRLTLTEERNAVMVPSAGSGIPGAPAEWTPVPGMETHIPVIFLDLNADDFSSQDNLDDPEAGGWDATLTGEEEEEFFELQIVKQHDGEVKAEASWDSAVHGCPQLSRGTPVDERLFLIVRVTVQLSHPADMQLVLRKRICVNVHGRQGFAQSLLKKMSHRSSIPGCGVTFEIVSNIPEDAQGVEEREALARMAANVENPASADSEAYIEKYLRSVLAVENLLTLDRLRQEVAVKEQLTGKGKLSRRSISSPNVNRLSGSRQDLIPSYSLGSNKGRWESQQDVSQTTVSRGIAPAPALSVSPQNNHSPDPGLSNLAASYLNPVKSFVPQMPKLLKSLFPVRDEKRGKRPSPLAHQPVPRIMVQSASPDIRVTRMEEAQPEMGPDVLVQTMGAPALKICDKPAKVPSPPPVIAVTAVTPAPEAQDGPPSPLSEASSGYFSHSVSTATLSDALGPGLDAAAPPGSMPTAPEAEPEAPISHPPPPTAVPAEEPPGPQQLVSPGRERPDLEAPAPGSPFRVRRVRASELRSFSRMLAGDPGCSPGAEGNAPAPGAGGQALASDSEEADEVPEWLREGEFVTVGAHKTGVVRYVGPADFQEGTWVGVELDLPSGKNDGSIGGKQYFRCNPGYGLLVRPSRVRRATGPVRRRSTGLRLGAPEARRSATLSGSATNLASLTAALAKADRSHKNPENRKSWAS
notes: also called KI13B^K414A; source: Sf9 insect cells (baculovirus), purified (Strep-Tactin XT, gel filtration); not shown: sfGFP, C-terminal, kept

Key:
[1] = target: T1, tyrosinated microtubules polymerized from recombinant human α1A/βIII tubulin (human, UniProt Q71U36 1-451; Q13509 1-450); assay: TIRF microscopy microtubule-binding assay (standard deviation map); differentially labelled tyrosinated and detyrosinated taxol microtubules held by biotin-streptavidin in the same chamber, sfGFP motors in solution, 2 mM ATP, HP assay buffer pH 7.0; conditions: both partners purified
T1 construct: human alpha-tubulin isotype α1A, fully tyrosinated; human beta-tubulin isotype βIII; Plasmids (pFAST-Dual) were gifts from A. Roll-Mecak; also called recombinant human tubulin (fully tyrosinated); not shown: His tag (from the HisTrap purification)
T1 sequence (Q71U36 whole entry, chain 1 of 2): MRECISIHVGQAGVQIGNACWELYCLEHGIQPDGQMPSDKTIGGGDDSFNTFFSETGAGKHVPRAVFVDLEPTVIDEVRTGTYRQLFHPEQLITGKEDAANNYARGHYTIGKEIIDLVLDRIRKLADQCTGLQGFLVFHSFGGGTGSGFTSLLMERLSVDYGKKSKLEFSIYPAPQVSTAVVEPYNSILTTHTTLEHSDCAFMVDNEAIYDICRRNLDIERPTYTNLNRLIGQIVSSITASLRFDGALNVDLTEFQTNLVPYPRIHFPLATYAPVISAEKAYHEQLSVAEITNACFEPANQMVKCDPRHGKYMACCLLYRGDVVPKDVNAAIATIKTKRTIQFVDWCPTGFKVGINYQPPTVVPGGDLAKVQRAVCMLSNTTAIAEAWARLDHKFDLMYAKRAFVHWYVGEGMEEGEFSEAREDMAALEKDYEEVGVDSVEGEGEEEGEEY
T1 sequence (Q13509 whole entry, chain 2 of 2): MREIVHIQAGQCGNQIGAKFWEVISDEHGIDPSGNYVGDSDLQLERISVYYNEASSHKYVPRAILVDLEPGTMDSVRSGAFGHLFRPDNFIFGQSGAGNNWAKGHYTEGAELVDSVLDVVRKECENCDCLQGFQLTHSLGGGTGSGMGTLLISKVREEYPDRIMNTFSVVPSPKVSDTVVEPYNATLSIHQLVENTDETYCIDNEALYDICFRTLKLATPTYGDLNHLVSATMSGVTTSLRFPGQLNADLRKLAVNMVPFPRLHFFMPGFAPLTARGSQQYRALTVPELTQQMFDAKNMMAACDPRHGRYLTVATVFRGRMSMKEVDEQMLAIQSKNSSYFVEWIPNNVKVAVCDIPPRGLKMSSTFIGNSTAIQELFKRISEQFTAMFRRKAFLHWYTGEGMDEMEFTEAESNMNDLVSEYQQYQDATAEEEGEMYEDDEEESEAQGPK

[2] = target: the molecule itself; assay: mass photometry; 5, 25 and 100 nM protein in HP buffer (90 mM HEPES, 10 mM PIPES, 50 mM K-acetate, 2 mM Mg-acetate, 1 mM EGTA, 10% glycerol, pH 7.0), room temperature; result told over the whole range; monomer to dimer

Binder	binding result [1]	binding result [2]
B1	binds	
B2	binds	
B3		binds
B4		binds
